The text below walks through data of IntAct's records for PubMed 18303947.

B1: NMDA receptor synaptonuclear signaling and neuronal migration factor (Mus musculus), Q99NF2-1 (parent)
chain: MGAAASRRRALRSEAMSSVAAKVRAARAFGEYLSQSHPENRNGADHLLADAYSGHDGSPEMQPAPQNKRRLSLVSNGRYEGSISDEAVSGKPAIEGPQPHVYTISREPALLPGSEAEAIELAVVKGRRQRERHPHHHSQPLRASPGSSREDISRPCQSWAGSRQGSKECPGCAQLVPGPSSRAFGLEQPPLPEAPGRHKKLERMYSVDGVSDDVPIRTWFPKENLFSFQTATTTMQAISVFRGYAERKRRKRENDSASVIQRNFRKHLRMVGSRRVKAQTFAERRERSFSRSWSDPTPMKADTSHDSRDSSDLQSSHCTLDEACEDLDWDTEKGLEAMACNTEGFLPPKVMLISSKVPKAEYIPTIIRRDDPSIIPILYDHEHATFEDILEEIEKKLNIYHKGAKIWKMLIFCQGGPGHLYLLKNKVATFAKVEKEEDMIHFWKRLSRLMSKVNPEPNVIHIMGCYILGNPNGEKLFQNLRTLMTPYKVTFESPLELSAQGKQMIETYFDFRLYRLWKSRQHSKLLDFDDVL

Variants of B1 are the subject of this assay. The settings on record: with Cabp1, O88751-1.
Sequence of Cabp1, O88751-1 (O88751 whole entry): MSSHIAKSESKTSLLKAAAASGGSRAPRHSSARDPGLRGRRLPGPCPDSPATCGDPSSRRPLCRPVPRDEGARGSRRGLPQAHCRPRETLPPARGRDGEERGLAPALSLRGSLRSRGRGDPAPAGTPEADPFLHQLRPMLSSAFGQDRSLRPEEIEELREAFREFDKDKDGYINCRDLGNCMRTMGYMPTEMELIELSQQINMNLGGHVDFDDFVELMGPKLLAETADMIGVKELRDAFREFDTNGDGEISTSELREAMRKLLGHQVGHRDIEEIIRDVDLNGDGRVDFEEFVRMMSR
For the variant F241E, the “effect of a mutation on the interaction” value is listed as “disrupting interaction”.
